Test results published in the supplement of paper PMC9112550, “Optimization of the antimicrobial peptide Bac7 by deep mutational scanning” (BMC Biology, 2022).
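Also: peptides expressed intracellularly from a pBAD plasmid library in pooled LB shake-flask culture, induced with 0.3% L-arabinose, DNA abundance read by NGS, three biological replicates, DESeq2 with apeglm shrinkage.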

What follows are sequences tested on Escherichia coli TOP10 (assay: shrunken log2 fold change of peptide-encoding DNA abundance (4.5 h post-induction vs induction); higher = less antimicrobial activity (less host growth inhibition)). Conditions: time post-induction: 4.5 h; library: site-saturation at positions 5, 18, 19, 20.
With RRIRVRPPRLPRPRPRPTAQPRP the “shrunken log2 fold change” value was -0.113.
For RRIRTRPPRLPRPRPRPFNNPRP, the “shrunken log2 fold change” value was -0.318.
RRIRMRPPRLPRPRPRPPNYPRP was tested, and the “shrunken log2 fold change” value was 0.0891.
For RRIRGRPPRLPRPRPRPAMIPRP, the “shrunken log2 fold change” value was 0.2.
In the case of RRIRARPPRLPRPRPRPMYMPRP, the “shrunken log2 fold change” value is reported as -0.354.
RRIRRRPPRLPRPRPRPIIEPRP was tested, and the “shrunken log2 fold change” value was 0.0476.
With RRIRKRPPRLPRPRPRPDSDPRP the “shrunken log2 fold change” value was 0.123.
For RRIRHRPPRLPRPRPRPVKKPRP, the “shrunken log2 fold change” value was 0.0327.
In the case of RRIRNRPPRLPRPRPRPYAEPRP, the “shrunken log2 fold change” value is reported as -0.525.
In the case of RRIRNRPPRLPRPRPRPPPEPRP, the “shrunken log2 fold change” value is reported as 1.1.
RRIRFRPPRLPRPRPRPRCLPRP was tested, and the “shrunken log2 fold change” value was -0.124.
RRIRMRPPRLPRPRPRPWTYPRP was tested, and the “shrunken log2 fold change” value was -0.0551.
For RRIRHRPPRLPRPRPRPGCRPRP, the “shrunken log2 fold change” value was 0.704.
For RRIRLRPPRLPRPRPRPNKCPRP, the “shrunken log2 fold change” value was -0.323.
RRIRVRPPRLPRPRPRPSSAPRP was tested, and the “shrunken log2 fold change” value was 0.0552.
For RRIRIRPPRLPRPRPRPNHYPRP, the “shrunken log2 fold change” value was -0.492.
RRIRIRPPRLPRPRPRPHFLPRP was tested, and the “shrunken log2 fold change” value was -1.42.
RRIRQRPPRLPRPRPRPGKWPRP was tested, and the “shrunken log2 fold change” value was 0.362.
In the case of RRIRCRPPRLPRPRPRPMKQPRP, the “shrunken log2 fold change” value is reported as -0.436.
RRIRIRPPRLPRPRPRPHNIPRP was tested, and the “shrunken log2 fold change” value was -0.424.
RRIRCRPPRLPRPRPRPCSHPRP was tested, and the “shrunken log2 fold change” value was -1.29.
For RRIRSRPPRLPRPRPRPISYPRP, the “shrunken log2 fold change” value was -0.117.
RRIRSRPPRLPRPRPRPETEPRP was tested, and the “shrunken log2 fold change” value was 0.997.
RRIRYRPPRLPRPRPRPTVTPRP was tested, and the “shrunken log2 fold change” value was -0.283.
In the case of RRIRARPPRLPRPRPRPRQEPRP, the “shrunken log2 fold change” value is reported as 0.503.
With RRIRLRPPRLPRPRPRPARMPRP the “shrunken log2 fold change” value was 0.386.
With RRIRERPPRLPRPRPRPYGAPRP the “shrunken log2 fold change” value was -0.569.
With RRIRLRPPRLPRPRPRPGIYPRP the “shrunken log2 fold change” value was -0.318.
With RRIRRRPPRLPRPRPRPMQRPRP the “shrunken log2 fold change” value was 0.24.
With RRIRARPPRLPRPRPRPHTEPRP the “shrunken log2 fold change” value was -0.0331.
In the case of RRIRPRPPRLPRPRPRPRGDPRP, the “shrunken log2 fold change” value is reported as 1.81.
With RRIRWRPPRLPRPRPRPCKRPRP the “shrunken log2 fold change” value was 0.118.
In the case of RRIRERPPRLPRPRPRPPHEPRP, the “shrunken log2 fold change” value is reported as 0.731.
In the case of RRIRWRPPRLPRPRPRPPGAPRP, the “shrunken log2 fold change” value is reported as 0.904.
For RRIRKRPPRLPRPRPRPPWSPRP, the “shrunken log2 fold change” value was 0.154.
In the case of RRIRRRPPRLPRPRPRPFFSPRP, the “shrunken log2 fold change” value is reported as 0.043.
RRIRDRPPRLPRPRPRPNHHPRP was tested, and the “shrunken log2 fold change” value was -0.539.
For RRIRDRPPRLPRPRPRPYFAPRP, the “shrunken log2 fold change” value was -0.413.
For RRIRGRPPRLPRPRPRPVGNPRP, the “shrunken log2 fold change” value was 0.204.
For RRIRHRPPRLPRPRPRPDKSPRP, the “shrunken log2 fold change” value was -0.276.
With RRIRLRPPRLPRPRPRPHESPRP the “shrunken log2 fold change” value was -0.0598.
With RRIRARPPRLPRPRPRPAVAPRP the “shrunken log2 fold change” value was 0.728.
For RRIRSRPPRLPRPRPRPQMLPRP, the “shrunken log2 fold change” value was -0.195.
For RRIRCRPPRLPRPRPRPIPHPRP, the “shrunken log2 fold change” value was -0.744.
RRIRIRPPRLPRPRPRPMYPPRP was tested, and the “shrunken log2 fold change” value was -0.0642.
With RRIRCRPPRLPRPRPRPHYSPRP the “shrunken log2 fold change” value was -0.723.
In the case of RRIRRRPPRLPRPRPRPYQDPRP, the “shrunken log2 fold change” value is reported as 0.00143.
For RRIRQRPPRLPRPRPRPAYPPRP, the “shrunken log2 fold change” value was -0.167.
RRIRFRPPRLPRPRPRPVTQPRP was tested, and the “shrunken log2 fold change” value was -0.244.
In the case of RRIRWRPPRLPRPRPRPWWTPRP, the “shrunken log2 fold change” value is reported as -0.0199.
RRIRDRPPRLPRPRPRPTLFPRP was tested, and the “shrunken log2 fold change” value was 0.533.
With RRIRCRPPRLPRPRPRPVEFPRP the “shrunken log2 fold change” value was -0.05.
RRIRGRPPRLPRPRPRPNGTPRP was tested, and the “shrunken log2 fold change” value was 0.54.
For RRIRERPPRLPRPRPRPQICPRP, the “shrunken log2 fold change” value was 0.172.
For RRIRVRPPRLPRPRPRPWSYPRP, the “shrunken log2 fold change” value was -0.0283.
RRIRLRPPRLPRPRPRPHISPRP was tested, and the “shrunken log2 fold change” value was -0.272.
In the case of RRIRDRPPRLPRPRPRPYCIPRP, the “shrunken log2 fold change” value is reported as -0.205.
RRIRERPPRLPRPRPRPGDRPRP was tested, and the “shrunken log2 fold change” value was 0.172.
With RRIRLRPPRLPRPRPRPCHEPRP the “shrunken log2 fold change” value was 0.0247.
RRIRHRPPRLPRPRPRPPVTPRP was tested, and the “shrunken log2 fold change” value was -0.0642.
With RRIRIRPPRLPRPRPRPGHFPRP the “shrunken log2 fold change” value was -0.0592.
With RRIRWRPPRLPRPRPRPSNHPRP the “shrunken log2 fold change” value was -0.471.
In the case of RRIRLRPPRLPRPRPRPCFWPRP, the “shrunken log2 fold change” value is reported as 0.14.
With RRIRHRPPRLPRPRPRPNCFPRP the “shrunken log2 fold change” value was 0.0486.
In the case of RRIRCRPPRLPRPRPRPAHWPRP, the “shrunken log2 fold change” value is reported as 0.337.
With RRIRCRPPRLPRPRPRPAGNPRP the “shrunken log2 fold change” value was 0.0404.
In the case of RRIRFRPPRLPRPRPRPTYGPRP, the “shrunken log2 fold change” value is reported as -0.252.
For RRIRPRPPRLPRPRPRPKFTPRP, the “shrunken log2 fold change” value was -0.141.
With RRIRSRPPRLPRPRPRPWEKPRP the “shrunken log2 fold change” value was -0.01.
RRIRQRPPRLPRPRPRPNCLPRP was tested, and the “shrunken log2 fold change” value was -0.0533.
With RRIRQRPPRLPRPRPRPHVDPRP the “shrunken log2 fold change” value was -0.088.
RRIRIRPPRLPRPRPRPKVGPRP was tested, and the “shrunken log2 fold change” value was 0.164.
In the case of RRIRYRPPRLPRPRPRPHQSPRP, the “shrunken log2 fold change” value is reported as 0.0552.
RRIRVRPPRLPRPRPRPDFQPRP was tested, and the “shrunken log2 fold change” value was -0.163.
With RRIRVRPPRLPRPRPRPACCPRP the “shrunken log2 fold change” value was 0.161.
